A short description of data set [1]: Reduction potential of polypeptide-bound heme/ferric cofactor vs. hydrogen electrode. It counts as physicochemical. The method, then:
In Example 2, the reduction potential of the peptides prepared in Example 1 is regulated by modulation of peptide ionic charge and cofactor structure. The net charge of the polypeptides is calculated using conventional methods known in the art.

Data set [2] can be described thus: Heme binding affinity by titration of heme into anaerobic protein solution. Conditions: oxidized heme; read-out: oxidized heme binding constant.
The format of data set [3] is physicochemical. The method, then: The reduced heme binding constants are also measured for His42→Phe mutants of the polypeptides.

Substitutions are numbered along the chain they refer to.

With “CGGGEIWKQHEEALKKFEEALKQFEELKKL (listed as Chemical synthesis) [HP-1]”, the “reduction potential difference spanned by three distinct ferric cofactors bound via bis-histidine ligation” value in data set [1] (three ferric cofactors, FIG. 4A) is “approximately 400 mV”.

B1: GEIWKQHEDALQKFEEALNQFEDLKQLGGSGCGSGGEIWKQHEDALQKFEEALNQFEDLKQL (protein, listed as Chemical synthesis)
chain: GEIWKQHEDALQKFEEALNQFEDLKQLGGSGCGSGGEIWKQHEDALQKFEEALNQFEDLKQL
notes: homodimeric helix-loop-helix variant of HP-6, recombinantly expressed in E. coli
Consider B1, for which the “reduction potential of heme complex, more positive than HP-1-heme complex” value in data set [1] (difference vs HP-1-heme complex, earlier experiments) was found to be 45 mV. For the same molecule, the Kd in data set [2] came to 0.22 nM.

B2: CC-10: HP-7 modified to incorporate the preferred consensus sequence (protein, listed as Chemical synthesis)
chain: B1 chain with W39L, E43A, L46A, F49I, E50F
For the molecule B2, in data set [3], the “stability of heme-bound complex” value is “long-term stability”. Further, the Kd in data set [2] was 0.0107 nM.

B3: CC-9: HP-7 peptide with specific Glu→Ala mutations (protein, listed as Chemical synthesis)
chain: B1 chain with E43A, E50A, E57A
In the case of B3, in data set [1] (difference vs HP-7, FIG. 4B), the “increase in bound heme reduction potential compared to HP-7” value is 101 mV.

Source of the values: patent US8901069B2, “Protein matrix for light-initiated electron transfer” (Research Foundation of The City University of New York, priority 2009, dated 2014).
